Assay results: PMC10411625, “Rationally designed stapled peptides allosterically inhibit PTBP1–RNA-binding” (Chemical Science, 2023)

Test: circular dichroism
Settings: 20 mM sodium phosphate, 10 mM NaF; pH 8; 20 °C; 50 uM

Compound | helicity
CC(=O)N[C@@H](CC(N)=O)C(=O)N[C@@H](CCC(N)=O)C(=O)N[C@@H](C)C(=O)N[C@@H](CCCNC(=N)N)C(=O)N[C@@H](C)C(=O)N[C@@]1(C)CCCCCCCC[C@@](C)(C(=O)N[C@@H](C)C(=O)N[C@H](C(=O)N[C@@H](CC(N)=O)C(N)=O)C(C)C)NC(=O)[C@H](CC(C)C)NC(=O)[C@H](C)NC(=O)[C@H](C)NC1=O | 77.3%
CC(=O)N[C@@H](CC(N)=O)C(=O)N[C@@H](CCC(N)=O)C(=O)N[C@@]1(C)CCCCCCCC[C@@](C)(C(=O)N[C@@H](C)C(=O)N[C@@H](CC(C)C)C(=O)N[C@@H](CCC(N)=O)C(=O)N[C@@H](C)C(=O)N[C@H](C(=O)N[C@@H](CC(N)=O)C(N)=O)C(C)C)NC(=O)[C@H](CCC(N)=O)NC(=O)[C@H](C)NC(=O)[C@H](CCCNC(=N)N)NC1=O | 92.3%
CC(=O)N[C@@H](CC(N)=O)C(=O)N[C@@H](CCC(N)=O)C(=O)N[C@@]1(C)CCCC=CCCC[C@]2(CCCC=CCCC[C@](C)(C(=O)N[C@H](C(=O)N[C@@H](CC(N)=O)C(N)=O)C(C)C)NC(=O)[C@H](CCC(N)=O)NC(=O)[C@H](CC(C)C)NC(=O)[C@H](C)NC2=O)NC(=O)[C@H](CCC(N)=O)NC(=O)[C@H](C)NC(=O)[C@H](CCCNC(=N)N)NC1=O | 100%
CC(=O)N[C@H](C(=O)N[C@@H](CCC(N)=O)C(=O)N[C@@]1(C)CCCC=CCCC[C@]2(CCCC=CCCC[C@](C)(C(=O)N[C@H](C(=O)N[C@@H](CC(N)=O)C(N)=O)C(C)C)NC(=O)[C@H](CCC(N)=O)NC(=O)[C@H](CC(C)C)NC(=O)[C@H](C)NC2=O)NC(=O)[C@H](CCC(N)=O)NC(=O)[C@H](C)NC(=O)[C@H](CCCNC(=N)N)NC1=O)C(C)C | 100%
CC(=O)N[C@@H](CC(N)=O)C(=O)N[C@@H](CCC(N)=O)C(=O)N[C@@]1(C)CCCC=CCCC[C@]2(CCCC=CCCC[C@](C)(C(=O)N[C@H](C(=O)N[C@@H](CC(N)=O)C(N)=O)C(C)C)NC(=O)[C@H](CCC(N)=O)NC(=O)[C@H](CC(N)=O)NC(=O)[C@H](C)NC2=O)NC(=O)[C@H](CCC(N)=O)NC(=O)[C@H](C)NC(=O)[C@H](CCCNC(=N)N)NC1=O | 100%
Ac-NQARAQAALQAVNR-NH2 | 20.2%
CC(=O)N[C@@H](CC(N)=O)C(=O)N[C@@H](CCC(N)=O)C(=O)N[C@@]1(C)CCCC=CCCC[C@]2(CCCC=CCCC[C@](C)(C(=O)N[C@H](C(=O)N[C@@H](CC(N)=O)C(N)=O)C(C)C)NC(=O)[C@H](CCC(N)=O)NC(=O)[C@H](CC(C)C)NC(=O)[C@H](C)NC2=O)NC(=O)[C@H](CCC(N)=O)NC(=O)[C@H](C)NC(=O)[C@H](CCNC(=N)N)NC1=O | 100%
CC(=O)N[C@@H](CC(N)=O)C(=O)N[C@@H](CCC(N)=O)C(=O)N[C@@]1(C)CCCC=CCCC[C@]2(CCCC=CCCC[C@](C)(C(=O)N[C@H](C(=O)N[C@@H](CC(=O)O)C(N)=O)C(C)C)NC(=O)[C@H](CCC(N)=O)NC(=O)[C@H](CC(C)C)NC(=O)[C@H](C)NC2=O)NC(=O)[C@H](CCC(N)=O)NC(=O)[C@H](C)NC(=O)[C@H](CCCNC(=N)N)NC1=O | 98.2%
CC(=O)N[C@@H](CC(N)=O)C(=O)N[C@@H](CCC(N)=O)C(=O)N[C@@H](C)C(=O)N[C@@H](CCCNC(=N)N)C(=O)N[C@@H](C)C(=O)N[C@@H](CCC(N)=O)C(=O)N[C@@]1(C)CCCCCCCC[C@@](C)(C(=O)N[C@H](C(=O)N[C@@H](CC(N)=O)C(N)=O)C(C)C)NC(=O)[C@H](CCC(N)=O)NC(=O)[C@H](CC(C)C)NC(=O)[C@H](C)NC1=O | 57.8%
